Values of other authors, collected in article PMC12990809.

How the values were obtained:
Experiment in all cases: pulldown
Details in all cases: 20 nM protein, 1.5 uM RNA pool; 20 mM HEPES pH 7.8, 70 mM KCl, 10 mM NaCl, 10% glycerol, 2 mM DTT, 0.1 ug/uL BSA; 30 min, 4 C (protocol of this paper; not …); cited from earlier work
[1] = biological target: PABPC4 (Homo sapiens) (UniProt Q13310)
[2] = biological target: T1, RBM46 (Homo sapiens) (UniProt Q8TBY0)
T1 sequence: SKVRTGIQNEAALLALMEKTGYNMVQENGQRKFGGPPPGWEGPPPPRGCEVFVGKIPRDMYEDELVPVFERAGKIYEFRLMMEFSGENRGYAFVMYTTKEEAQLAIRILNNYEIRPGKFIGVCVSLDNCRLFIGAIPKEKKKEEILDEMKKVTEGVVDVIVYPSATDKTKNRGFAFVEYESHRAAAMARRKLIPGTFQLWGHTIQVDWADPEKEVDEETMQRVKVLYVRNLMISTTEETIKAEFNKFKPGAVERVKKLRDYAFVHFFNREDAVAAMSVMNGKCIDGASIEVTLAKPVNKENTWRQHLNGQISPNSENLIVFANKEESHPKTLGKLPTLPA

[3] = biological target: T2, Rbp1 (Drosophila melanogaster) (UniProt Q02427)
T2 sequence: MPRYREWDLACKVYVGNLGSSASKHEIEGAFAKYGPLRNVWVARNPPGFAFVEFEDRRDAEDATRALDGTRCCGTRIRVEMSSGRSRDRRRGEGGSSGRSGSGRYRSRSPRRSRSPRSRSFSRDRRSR

[4] = biological target: T3, Rsf1 (Drosophila melanogaster) (UniProt Q24491)
T3 sequence: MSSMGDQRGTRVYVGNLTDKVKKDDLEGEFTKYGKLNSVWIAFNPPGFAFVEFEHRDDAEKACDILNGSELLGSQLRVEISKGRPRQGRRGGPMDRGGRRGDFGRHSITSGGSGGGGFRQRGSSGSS

[5] = biological target: T4, QKI (Homo sapiens) (UniProt Q96PU8)
T4 sequence: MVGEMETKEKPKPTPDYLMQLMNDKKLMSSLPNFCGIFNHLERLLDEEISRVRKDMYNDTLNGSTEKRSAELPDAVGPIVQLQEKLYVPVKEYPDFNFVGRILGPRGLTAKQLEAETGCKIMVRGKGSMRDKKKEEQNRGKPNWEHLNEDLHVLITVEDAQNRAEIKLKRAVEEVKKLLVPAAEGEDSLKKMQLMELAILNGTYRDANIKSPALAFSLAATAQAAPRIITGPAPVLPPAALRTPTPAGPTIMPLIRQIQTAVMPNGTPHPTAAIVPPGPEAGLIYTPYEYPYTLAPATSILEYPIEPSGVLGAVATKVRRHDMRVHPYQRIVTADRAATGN

[6] = biological target: T5, RBM3 (Homo sapiens) (UniProt P98179)
T5 sequence: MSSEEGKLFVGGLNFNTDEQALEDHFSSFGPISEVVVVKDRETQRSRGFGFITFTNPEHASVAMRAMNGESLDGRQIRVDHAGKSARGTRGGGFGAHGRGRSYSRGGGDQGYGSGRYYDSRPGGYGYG

[7] = biological target: T6, RBM41 (Homo sapiens) (UniProt Q96IZ5)
T6 sequence: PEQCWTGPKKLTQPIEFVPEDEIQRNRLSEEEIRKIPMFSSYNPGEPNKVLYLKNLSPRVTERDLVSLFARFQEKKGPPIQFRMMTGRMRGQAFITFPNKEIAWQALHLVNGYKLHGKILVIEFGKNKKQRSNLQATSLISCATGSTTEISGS

[8] = biological target: SRSF9 (Homo sapiens) (UniProt Q13242)
Sequence of SRSF9 (Homo sapiens) (Q13242 whole entry): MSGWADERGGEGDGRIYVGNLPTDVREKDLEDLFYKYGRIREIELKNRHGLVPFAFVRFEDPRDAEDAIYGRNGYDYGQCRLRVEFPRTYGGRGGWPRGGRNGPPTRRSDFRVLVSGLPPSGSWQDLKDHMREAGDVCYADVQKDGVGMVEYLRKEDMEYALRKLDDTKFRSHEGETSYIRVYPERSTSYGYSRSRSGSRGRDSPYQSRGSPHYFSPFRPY

[9] = biological target: T7, CG14718 (Drosophila melanogaster) (UniProt Q7K543)
T7 sequence: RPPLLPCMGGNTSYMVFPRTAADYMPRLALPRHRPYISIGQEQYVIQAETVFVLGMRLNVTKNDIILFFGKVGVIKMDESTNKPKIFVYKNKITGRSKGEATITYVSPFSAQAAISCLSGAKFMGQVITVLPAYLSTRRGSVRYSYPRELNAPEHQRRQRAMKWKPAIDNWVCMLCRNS

[10] = biological target: T8, RBM4 (Homo sapiens) (UniProt Q9BWF3)
T8 sequence: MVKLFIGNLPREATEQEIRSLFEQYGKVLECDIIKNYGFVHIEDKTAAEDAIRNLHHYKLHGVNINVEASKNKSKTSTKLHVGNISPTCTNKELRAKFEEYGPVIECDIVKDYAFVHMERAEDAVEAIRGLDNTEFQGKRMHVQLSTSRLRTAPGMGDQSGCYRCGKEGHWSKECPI

[11] = biological target: T9, SART3 (Homo sapiens) (UniProt Q15020)
T9 sequence: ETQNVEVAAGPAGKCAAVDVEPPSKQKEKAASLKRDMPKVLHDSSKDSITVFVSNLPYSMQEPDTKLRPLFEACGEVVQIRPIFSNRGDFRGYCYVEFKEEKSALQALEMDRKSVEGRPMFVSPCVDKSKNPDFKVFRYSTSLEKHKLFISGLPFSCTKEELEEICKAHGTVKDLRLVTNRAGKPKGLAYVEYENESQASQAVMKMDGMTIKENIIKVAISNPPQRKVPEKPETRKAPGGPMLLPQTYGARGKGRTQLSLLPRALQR

[12] = biological target: RBM5 (Homo sapiens) (UniProt P52756)
Sequence of RBM5 (Homo sapiens) (P52756 1-546): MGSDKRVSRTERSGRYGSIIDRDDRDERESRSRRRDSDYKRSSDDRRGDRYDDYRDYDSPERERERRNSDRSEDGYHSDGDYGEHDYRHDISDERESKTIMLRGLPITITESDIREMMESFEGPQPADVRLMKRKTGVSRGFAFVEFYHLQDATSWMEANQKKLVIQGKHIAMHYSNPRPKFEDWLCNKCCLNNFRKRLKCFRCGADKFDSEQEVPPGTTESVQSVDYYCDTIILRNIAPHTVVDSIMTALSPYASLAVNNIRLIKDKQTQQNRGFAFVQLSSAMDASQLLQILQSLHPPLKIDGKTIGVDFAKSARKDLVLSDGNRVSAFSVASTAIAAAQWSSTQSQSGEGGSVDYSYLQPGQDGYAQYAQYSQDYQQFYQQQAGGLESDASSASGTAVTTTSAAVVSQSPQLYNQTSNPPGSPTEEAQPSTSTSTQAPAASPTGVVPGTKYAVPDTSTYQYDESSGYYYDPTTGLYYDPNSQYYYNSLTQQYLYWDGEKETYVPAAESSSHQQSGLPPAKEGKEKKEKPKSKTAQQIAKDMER

[13] = biological target: T10, RBM28 (Homo sapiens) (UniProt Q9NW13)
T10 sequence: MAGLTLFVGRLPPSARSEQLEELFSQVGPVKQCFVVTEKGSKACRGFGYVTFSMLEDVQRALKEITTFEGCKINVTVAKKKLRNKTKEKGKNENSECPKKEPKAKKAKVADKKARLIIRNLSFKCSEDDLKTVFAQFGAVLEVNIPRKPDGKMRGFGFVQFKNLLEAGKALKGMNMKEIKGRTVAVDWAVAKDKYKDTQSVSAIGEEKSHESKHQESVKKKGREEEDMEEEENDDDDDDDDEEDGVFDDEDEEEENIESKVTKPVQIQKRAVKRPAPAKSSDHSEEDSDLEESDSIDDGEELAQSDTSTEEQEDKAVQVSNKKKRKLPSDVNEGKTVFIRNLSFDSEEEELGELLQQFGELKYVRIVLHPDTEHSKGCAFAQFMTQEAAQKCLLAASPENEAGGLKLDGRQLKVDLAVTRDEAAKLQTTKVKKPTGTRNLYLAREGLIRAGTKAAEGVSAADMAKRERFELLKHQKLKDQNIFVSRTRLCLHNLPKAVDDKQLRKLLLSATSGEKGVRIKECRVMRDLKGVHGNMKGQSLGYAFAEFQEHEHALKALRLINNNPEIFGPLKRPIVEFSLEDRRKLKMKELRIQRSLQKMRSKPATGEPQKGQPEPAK

[14] = biological target: T11, SAMD4A (Homo sapiens) (UniProt Q9UPU9)
T11 sequence: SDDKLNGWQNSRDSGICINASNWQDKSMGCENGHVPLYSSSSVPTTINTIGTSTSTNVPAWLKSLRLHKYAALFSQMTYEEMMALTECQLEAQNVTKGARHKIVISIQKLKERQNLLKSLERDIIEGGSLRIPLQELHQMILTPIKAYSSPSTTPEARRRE

[15] = biological target: T12, SF2 (Drosophila melanogaster) (UniProt Q7KJ21)
T12 sequence: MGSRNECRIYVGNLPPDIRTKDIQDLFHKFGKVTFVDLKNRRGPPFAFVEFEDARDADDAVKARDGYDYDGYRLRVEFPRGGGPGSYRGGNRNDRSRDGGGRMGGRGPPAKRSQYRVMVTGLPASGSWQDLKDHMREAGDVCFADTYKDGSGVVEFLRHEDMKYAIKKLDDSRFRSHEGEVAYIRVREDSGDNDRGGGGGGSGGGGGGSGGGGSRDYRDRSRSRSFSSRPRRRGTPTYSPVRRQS

[16] = biological target: Khdrbs1 (Mus musculus) (UniProt Q60749)
Sequence of Khdrbs1 (Mus musculus) (Q60749 3-443): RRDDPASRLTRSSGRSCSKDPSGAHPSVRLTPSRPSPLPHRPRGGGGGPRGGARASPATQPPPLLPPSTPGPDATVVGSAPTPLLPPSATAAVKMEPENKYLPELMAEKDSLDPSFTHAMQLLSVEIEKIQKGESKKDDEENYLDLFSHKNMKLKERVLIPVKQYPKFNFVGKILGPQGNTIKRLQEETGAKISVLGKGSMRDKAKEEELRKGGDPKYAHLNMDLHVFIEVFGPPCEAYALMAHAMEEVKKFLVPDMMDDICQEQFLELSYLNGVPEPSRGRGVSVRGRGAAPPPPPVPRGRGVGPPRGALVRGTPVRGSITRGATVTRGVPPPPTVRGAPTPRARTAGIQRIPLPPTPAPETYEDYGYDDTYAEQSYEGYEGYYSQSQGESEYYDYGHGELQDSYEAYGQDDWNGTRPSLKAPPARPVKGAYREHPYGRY

[17] = biological target: T13, RBMS3 (Homo sapiens) (UniProt Q6XE24)
T13 sequence: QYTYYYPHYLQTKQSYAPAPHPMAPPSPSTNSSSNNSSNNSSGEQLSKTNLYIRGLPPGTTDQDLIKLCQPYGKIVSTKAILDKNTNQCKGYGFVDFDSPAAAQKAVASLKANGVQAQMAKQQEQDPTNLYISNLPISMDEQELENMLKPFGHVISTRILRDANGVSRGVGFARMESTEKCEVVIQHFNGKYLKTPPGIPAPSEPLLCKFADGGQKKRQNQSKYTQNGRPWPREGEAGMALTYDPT

[18] = biological target: T14, shep (Drosophila melanogaster) (UniProt Q8MSV2)
T14 sequence: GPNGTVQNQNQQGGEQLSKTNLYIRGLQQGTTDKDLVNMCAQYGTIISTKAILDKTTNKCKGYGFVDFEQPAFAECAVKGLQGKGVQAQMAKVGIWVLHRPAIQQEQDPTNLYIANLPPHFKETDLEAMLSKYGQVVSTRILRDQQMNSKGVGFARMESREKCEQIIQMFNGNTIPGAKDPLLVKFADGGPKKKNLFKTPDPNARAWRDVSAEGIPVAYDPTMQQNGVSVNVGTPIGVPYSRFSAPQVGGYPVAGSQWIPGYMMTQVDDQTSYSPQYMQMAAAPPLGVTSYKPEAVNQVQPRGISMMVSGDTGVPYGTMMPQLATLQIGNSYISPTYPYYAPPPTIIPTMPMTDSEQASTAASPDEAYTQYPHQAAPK

[19] = biological target: T15, SF1 (Drosophila melanogaster) (UniProt A9UNA1)
T15 sequence: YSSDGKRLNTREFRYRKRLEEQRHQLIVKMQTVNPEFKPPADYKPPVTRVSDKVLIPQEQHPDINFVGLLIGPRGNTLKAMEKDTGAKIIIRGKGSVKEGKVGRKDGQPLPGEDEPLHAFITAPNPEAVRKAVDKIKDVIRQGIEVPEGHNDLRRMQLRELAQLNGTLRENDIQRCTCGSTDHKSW

[20] = biological target: T16, pum (Drosophila melanogaster) (UniProt P25822)
T16 sequence: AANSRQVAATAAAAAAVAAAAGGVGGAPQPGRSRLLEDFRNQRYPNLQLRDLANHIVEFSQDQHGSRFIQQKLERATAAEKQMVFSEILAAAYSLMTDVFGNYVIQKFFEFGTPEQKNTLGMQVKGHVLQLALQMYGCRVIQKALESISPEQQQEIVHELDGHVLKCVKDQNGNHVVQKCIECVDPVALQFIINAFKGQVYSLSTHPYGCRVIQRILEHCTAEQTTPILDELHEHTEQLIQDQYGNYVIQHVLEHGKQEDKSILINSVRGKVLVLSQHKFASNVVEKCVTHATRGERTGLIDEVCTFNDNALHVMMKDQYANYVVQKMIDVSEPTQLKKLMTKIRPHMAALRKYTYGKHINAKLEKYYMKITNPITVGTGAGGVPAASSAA

[21] = biological target: T17, Rbm38 (Mus musculus) (UniProt Q62176)
T17 sequence: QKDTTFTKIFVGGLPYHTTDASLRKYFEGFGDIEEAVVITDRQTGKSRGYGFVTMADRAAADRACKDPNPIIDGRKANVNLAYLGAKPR

[22] = biological target: T18, tiar-3 (Caenorhabditis elegans) (UniProt Q93194)
T18 sequence: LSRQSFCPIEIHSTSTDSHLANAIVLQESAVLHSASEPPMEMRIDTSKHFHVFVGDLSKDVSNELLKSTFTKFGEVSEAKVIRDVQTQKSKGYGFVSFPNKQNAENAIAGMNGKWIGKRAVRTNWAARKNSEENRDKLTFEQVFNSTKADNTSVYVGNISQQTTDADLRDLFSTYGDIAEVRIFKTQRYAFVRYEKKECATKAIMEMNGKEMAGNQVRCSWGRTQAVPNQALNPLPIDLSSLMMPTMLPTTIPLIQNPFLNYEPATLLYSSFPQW

Sequence of PABPC4 (Homo sapiens) (Q13310 1-414): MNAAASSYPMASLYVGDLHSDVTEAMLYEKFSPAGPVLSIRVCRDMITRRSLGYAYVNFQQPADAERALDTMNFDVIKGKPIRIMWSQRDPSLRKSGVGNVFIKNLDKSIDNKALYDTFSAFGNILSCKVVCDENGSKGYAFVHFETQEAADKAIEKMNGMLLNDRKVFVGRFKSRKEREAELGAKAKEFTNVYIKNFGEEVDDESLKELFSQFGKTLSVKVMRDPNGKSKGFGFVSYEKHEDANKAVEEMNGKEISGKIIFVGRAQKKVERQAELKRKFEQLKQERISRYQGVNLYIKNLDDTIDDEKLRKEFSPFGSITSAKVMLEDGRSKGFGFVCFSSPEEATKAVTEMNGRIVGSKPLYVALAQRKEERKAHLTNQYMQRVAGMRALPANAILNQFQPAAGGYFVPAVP

## AAAAAA [RNAcompete motif RNCMPT00043]
[1]
  binding signal (z-score (mean of top ten 7-mers)): 12.2

## AAUCAA [RNAcompete motif RNCMPT00054]
[2]
  binding signal (z-score (mean of top ten 7-mers)): 8.4

## ACAACG [RNAcompete motif RNCMPT00058]
[3]
  binding signal (z-score (mean of top ten 7-mers)): 9.03

## ACGACGA [RNAcompete motif RNCMPT00061]
[4]
  binding signal (z-score (mean of top ten 7-mers)): 10.6

## ACUAACC [RNAcompete motif RNCMPT00047]
[5]
  binding signal (z-score (mean of top ten 7-mers)): 6.41

## AGAUAC [RNAcompete motif RNCMPT00050]
[6]
  binding signal (z-score (mean of top ten 7-mers)): 7.1

## AUACAU [RNAcompete motif RNCMPT00053]
[7]
  binding signal (z-score (mean of top ten 7-mers)): 10.7

## AUGGA [RNAcompete motif RNCMPT00067]
[8]
  binding signal (z-score (mean of top ten 7-mers)): 6.71

## CCAGAUG [RNAcompete motif RNCMPT00006]
[9]
  binding signal (z-score (mean of top ten 7-mers)): 11.9

## CGCGCG [RNAcompete motif RNCMPT00113]
[10]
  binding signal (z-score (mean of top ten 7-mers)): 17.7

## GAAAAA [RNAcompete motif RNCMPT00064]
[11]
  binding signal (z-score (mean of top ten 7-mers)): 11.1

## GAAGGNA [RNAcompete motif RNCMPT00055]
[12]
  binding signal (z-score (mean of top ten 7-mers)): 6.04

## GAGUAG [RNAcompete motif RNCMPT00049]
[13]
  binding signal (z-score (mean of top ten 7-mers)): 7.8

## GCUGGNC [RNAcompete motif RNCMPT00063]
[14]
  binding signal (z-score (mean of top ten 7-mers)): 15.9

## GGAGGA [RNAcompete motif RNCMPT00066]
[15]
  binding signal (z-score (mean of top ten 7-mers)): 14.1

## UAAAAG [RNAcompete motif RNCMPT00062]
[16]
  binding signal (z-score (mean of top ten 7-mers)): 7.39

## UAUAUA [RNAcompete motif RNCMPT00173]
[17]
  binding signal (z-score (mean of top ten 7-mers)): 8.57

## UAUAUUA [RNAcompete motif RNCMPT00175]
[18]
  binding signal (z-score (mean of top ten 7-mers)): 7.37

## UCUNAU [RNAcompete motif RNCMPT00065]
[19]
  binding signal (z-score (mean of top ten 7-mers)): 9.28

## UGUACAU [RNAcompete motif RNCMPT00046]
[20]
  binding signal (z-score (mean of top ten 7-mers)): 28.5

## UUUNUGU [RNAcompete motif RNCMPT00051]
[21]
  binding signal (z-score (mean of top ten 7-mers)): 17

## UUUUUU [RNAcompete motif RNCMPT00005]
[22]
  binding signal (z-score (mean of top ten 7-mers)): 11
